In patent US20100291682, “SYSTEM FOR TRANSPOSING HYPERACTIVE RECOMBINANT DERIVATIVES OF MOS-1 TRANSPOSON” (published 2010) one finds binding result and binding signal data, which are given here for nine molecules.

B1: ITRSelex SEQ 44 (dsDNA)
DNA 1: ATAGTGTTTAAAGCTTACT
DNA 2: AGTAAGCTTTAAACACTAT
B2: ITRSelex SEQ 45 (dsDNA)
DNA 1: GTCAGTGATGTCACCAACGTATGGAATATCGTAT
DNA 2: ATACGATATTCCATACGTTGGTGACATCACTGAC
B3: ITRSelex SEQ 40 (dsDNA)
DNA 1: GCGGGTGTGAAAATATGAAATATTCACT
DNA 2: AGTGAATATTTCATATTTTCACACCCGC
B4: ITRSelex SEQ 41 (dsDNA)
DNA 1: GAAGAGTTATAACTCAAGAAAACTGAAT
DNA 2: ATTCAGTTTTCTTGAGTTATAACTCTTC
B5: ITRSelex SEQ 42 (dsDNA)
DNA 1: CGATTACAATTATGAAAACTTTCCT
DNA 2: AGGAAAGTTTTCATAATTGTAATCG
B6: ITRSelex SEQ 43 (dsDNA)
DNA 1: GGAGAAATGGTAGAATAGTTTA
DNA 2: TAAACTATTCTACCATTTCTCC

One series has as its target T1, MBP-Mos-1 transposase (MBP-Tnp) (Drosophila mauritiana, UniProt Q7JQ07 SEQ:1-345).
T1 sequence: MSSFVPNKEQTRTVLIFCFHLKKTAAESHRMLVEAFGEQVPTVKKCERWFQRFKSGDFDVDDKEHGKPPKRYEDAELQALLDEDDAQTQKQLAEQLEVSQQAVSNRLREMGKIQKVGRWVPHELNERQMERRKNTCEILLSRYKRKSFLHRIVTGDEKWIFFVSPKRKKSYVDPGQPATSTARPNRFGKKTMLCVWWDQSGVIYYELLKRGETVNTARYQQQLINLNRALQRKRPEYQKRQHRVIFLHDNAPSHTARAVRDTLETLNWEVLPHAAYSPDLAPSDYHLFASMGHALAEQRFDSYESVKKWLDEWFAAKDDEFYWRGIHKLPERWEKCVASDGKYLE
Kind of series: EMSA; clone number to SEQ mapping not given. The conditions noted are these: tags: N-terminal MBP (pMalC2x); chain copies: 2.
For B1, the binding result is listed as “binds”.
On to B2, for which the binding result is “binds”.
As for B3, the binding result is “binds”.
For B4, the binding result is reported as “binds”.
For B5, the binding result is reported as “binds”.
For B6, the binding result is on record as “binds”.

Another series deals with T1, MBP-Mos-1 transposase (MBP-Tnp).
Assay: not given
To be noted: active protein (Bmax) versus ITR3'; same Kd as ITR3'; inventors' prior research.
Mos-1 ITR5' displayed a binding signal of 0.1 fold.

The target is the same in the next series. Nature of the series: EMSA. To be noted: complex stability versus ITR alone; MBP tag assumed. (In general: A gel shift assay detects complexes by their altered migration in electrophoresis.)
Molecule ITR3'/UTR3' showed a binding signal of 4 fold.
The molecule ITR3'/UTR5' had a binding signal of 4 fold.
